T1: murine Flt3 (R&D 768-F3-050) (murine, UniProt Q00342 28-544)
T1 construct: Bought recombinant protein coated on the ELISA plate; also called receptor for Flt3L; recombinant CD135
T1 sequence (looked up): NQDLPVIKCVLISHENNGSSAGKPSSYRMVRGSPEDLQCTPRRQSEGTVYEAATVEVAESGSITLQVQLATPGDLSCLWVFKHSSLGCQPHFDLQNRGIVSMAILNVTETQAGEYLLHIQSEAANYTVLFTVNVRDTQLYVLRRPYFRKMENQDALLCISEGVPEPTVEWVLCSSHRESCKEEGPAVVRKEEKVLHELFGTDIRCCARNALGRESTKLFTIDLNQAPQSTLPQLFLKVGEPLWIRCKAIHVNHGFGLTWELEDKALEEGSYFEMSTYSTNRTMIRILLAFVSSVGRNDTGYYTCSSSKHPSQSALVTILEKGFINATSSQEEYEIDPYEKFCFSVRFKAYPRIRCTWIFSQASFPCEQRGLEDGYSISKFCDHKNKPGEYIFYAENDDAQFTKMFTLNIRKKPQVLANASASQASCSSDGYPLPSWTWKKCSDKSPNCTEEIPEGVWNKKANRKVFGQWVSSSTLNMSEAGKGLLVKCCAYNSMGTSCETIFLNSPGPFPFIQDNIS


Target: T1, murine Flt3 (R&D 768-F3-050)
Assay: ELISA: plate coated with murine Flt3, Flt3L variants titrated, detection with biotinylated anti-Flt3L and avidin-HRP
Protocol: Protein was cloned, produced, and purified as described in methods. Following purification, bands were confirmed at the expected sizes via SDS-PAGE under reducing conditions (WT at around 30 KDa with multiple bands due to glycosylation differences and Flt3L-MSA at around 75 KDa). Binding of each protein to the receptor for Flt3L (murine Flt3, R&D 768-F3-050) was then confirmed via ELISA. Briefly, high binding plates were coated overnight with 50 μL of 1 nM protein in a Carb/Bicarb buffer pH of 9. The plates were then washed and blocked using R&D blocking buffer before the addition of Flt3L variants at different concentrations in blocking buffer. Detection occurred using biotinylated αFlt3L and subsequent incubation with avidin-HRP. Binding was then visualized via incubation with TMB solution until highest concentrations reached an approximate absorbance of 1 and the reaction was stopped using 2N H2SO4.
High-bind plates (Corning #9018) were coated by incubating overnight at 4 C with 10 nM recombinant CD135 (R&D 768-F3-050) in […] sodium bicarbonate buffer at pH 9.2. Following coating, plates were washed in PBST before blocking in 1× reagent diluent (R&D DY995) for 2 hours at RT. Samples were then diluted to the indicated concentration in triplicate using the same reagent diluent. […] Quantification occurred by reading the absorbance at 450 nm and 570 nm.

Kd	Binder
160 pM	wild type murine Flt3L (ligand, Made in HEK293F cells and glycosylated (multiple bands around 30 kDa); also called WT Flt3L; WT; not shown: it was purified over a HisTrap HP column, so it probably carries a His tag) MTPDCYFSHSPISSNFKVKFRELTDHLLKDYPVTVAVNLQDEKHCKALWSLFLAQRWIEQLKTVAGSKMQTLLEDVNTEIHFVTSCTFQPLPECLRFVQTNISHLLKDTCTQLLALKPCIGKACQNFSRCLEVQCQPDSSTLLPPRSPIALEATELPEPRPRQ
160 pM	Flt3L fused to Mouse Serum Albumin (Flt3L-MSA) (other, also called MSA fused Flt3L; Flt3L-SA) MTPDCYFSHSPISSNFKVKFRELTDHLLKDYPVTVAVNLQDEKHCKALWSLFLAQRWIEQLKTVAGSKMQTLLEDVNTEIHFVTSCTFQPLPECLRFVQTNISHLLKDTCTQLLALKPCIGKACQNFSRCLEVQCQPDSSTLLPPRSPIALEATELPEPRPRQGGGGSGGGGSEAHKSEIAHRYNDLGEQHFKGLVLIAFSQYLQKCSYDEHAKLVQEVTDFAKTCVADESAANCDKSLHTLFGDKLCAIPNLRENYGELADCCTKQEPERNECFLQHKDDNPSLPPFERPEAEAMCTSFKENPTTFMGHYLHEVARRHPYFYAPELLYYAEQYNEILTQCCAEADKESCLTPKLDGVKEKALVSSVRQRMKCSSMQKFGERAFKAWAVARLSQTFPNADFAEITKLATDLTKVNKECCHGDLLECADDRAELAKYMCENQATISSKLQTCCDKPLLKKAHCLSEVEHDTMPADLPAIAADFVEDQEVCKNYAEAKDVFLGTFLYEYSRRHPDYSVSLLLRLAKKYEATLEKCCAEANPPACYGTVLAEFQPLVEEPKNLVKTNCDLYEKLGEYGFQNAILVRYTQKAPQVSTPTLVEAARNLGRVGTKCCTLPEDQRLPCVEDYLSAILNRVCLLHEKTPVSEHVTKCCSGSLVERRPCFSALTVDETYVPKEFKAETFTFHSDICTLPEKEKQIKKQTALAELVKHKPKATAEQLKTVMDDFAQFLDTCCKAADKDTCFSTEGPNLVTRCKDALAHHHHHH

Source: US20250340607A1 (UNIVERSITY OF CHICAGO, published 2025)
